The text below walks through data of article PMC6001950.

The assay concerns the target human S100A9 protein (human) (UniProt P06702). The experiment in a line: other fluorescence titration; intrinsic tryptophan fluorescence of 2 uM S100A9; S100A12 added at 0.4-7 uM; excitation 295 nm, emission read at 345 nm; one binding site model.

B1: human S100A12 protein (natural protein)
chain: MTKLEEHLEGIVNIFHQYSVRKGHFDTLSKGELKQLLTKELANTIKNIKDKAVIDEIFQGLDANQDEQVDFQEFISLVAIALKAAHYHTHKE
In the case of B1, the Kd is 1.3 µM.
